Reference: patent publication US7279161B2, “Factor IX/factor IXa activating antibodies and antibody derivatives” (Baxter Aktiengesellschaft, priority 1999, dated 2007)
Entries after “also recorded” stand apart in the source; their conditions may differ.

B1: 193/AD3: anti-FIX/FIXa monoclonal antibody, IgG isotype; scFv SEQ. ID. NOs. 81 and 82 (protein)
scFv: EVKLVESGPELKKPGETVKISCKASGYIFTNYGMNWVKQAPGKGLKWMGWINTYTGEPTYADDFKGRFAFSLETSASTAYLQINNLKNEDTATYFCALYGNSPKGFAYWGQGTLVTVSAGGGGSGGRASGGGGSDIQMTQSPKFLLVSAGDRVTITCKASQSVSNDVAWYQQKPGQSPKLLMYYASNRYTGVPDRFTGSGYGTDFTFTISTVQAEDLAVYFCQQDYGSPPTFGGGTKLEIKR
modifications: scFv derived from IgG; Description of Artificial Sequence:scFv from hybridoma cell line 193/AD3
notes: anti-FIX/FIXa monoclonal antibody, IgG isotype; ID; NOs; 81 and 82
B2: #8860: irrelevant monoclonal antibody, negative control (protein)
chain 1: EVQLQQSGPELVKPGASVKISCKASGYAFSSSWMNWVKQRPGQGLEWIGRIYPGNGDTNYNGKFKGKATLTADKSSSTAYMQLSSLTSVDSAVYFCADGNVYYYAMDYWGQGTSVTVSS
chain 2: QIVLTQSPASLAVSLGQRATISCRASKSVSTSGYSYMHWYQQKPGQPPKLLIYLASNLESGVPARFSGSGSGTDFTLNIHPVEEEDAATYYCQHSRELPRTFGGGTKLEIKR

How the values were obtained:
FVIII deficient plasma = assay: aPTT based one stage clotting assay in FVIII deficient plasma; format: biochemical, human; settings: for clotting time: 50 ng FIXa
How it was run: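 Test samples preincubated 4 min with FVIII-deficient plasma and aPTT reagent (DAPTTIN or Pathromtin SL), optionally with 50 ng activated FIX; clotting started with 25 mM CaCl2. Read-out is clotting time from start to clot formation, set against FVIII, buffer or scrambled-peptide controls.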

factor IXa = biological target: T1, factor IXa (Bos taurus, UniProt P00741); assay: Chromogenic FVIII assay (COATEST VIII:C/4) with the kit's FIXa/FX; format: biochemical, bovine; settings: purified IgG (198/AC1/1 10 μg/ml) or unpurified IgM supernatant
T1 construct: purchased Chromogenix COATEST VIII:C/4
T1 sequence (P00741 47-192 limits assumed): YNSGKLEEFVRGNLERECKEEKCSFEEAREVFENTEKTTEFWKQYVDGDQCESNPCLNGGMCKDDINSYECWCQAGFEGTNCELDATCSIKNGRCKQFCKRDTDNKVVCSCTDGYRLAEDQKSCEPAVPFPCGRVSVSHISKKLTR
T1 sequence (P00741 228-462 limits assumed): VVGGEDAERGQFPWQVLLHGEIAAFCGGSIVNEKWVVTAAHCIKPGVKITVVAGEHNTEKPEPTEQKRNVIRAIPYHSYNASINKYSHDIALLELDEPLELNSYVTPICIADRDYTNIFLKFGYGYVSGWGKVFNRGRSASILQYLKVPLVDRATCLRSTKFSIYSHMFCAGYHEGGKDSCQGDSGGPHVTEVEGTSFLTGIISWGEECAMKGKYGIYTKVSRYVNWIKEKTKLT
Procedure: In order to assay the FVIII-like activity of anti-FIXa antibodies secreted by hybridoma cells, the commercially available test-kit COATEST VIII:C/4® (Chromogenix) was employed. The assay was done essentially as described by the manufacturer with the following modifications:
To allow high throughput screening, the assay was downscaled to microtiter plate format. Briefly, 25 μl aliquots of hybridoma supernatants were transferred to microtiter plate (Costar, #3598) wells and warmed to 37° C. Chromogenic substrate (S-2222), synthetic thrombin inhibitor (I-2581), factor (F) IXa and FX were reconstituted in sterile water and FIXa/FX was mixed with phospholipids according to the supplier's protocol. Per reaction, 50 μl of the phospholipid/FIXa/FX solution were combined with 25 μl CaCl2 (25 mM) and 50 μl of the substrate/inhibitor cocktail. To start the reaction, 125 μl of the premix were added to the hybridoma supernatant in the microtiter plates and incubated at 37° C. Absorbency at 405 nm and 490 nm of the samples was read at various times (30 min to 12 h) against a reagent blank (MLW, cell culture medium instead of hybridoma supernatant) in a Labsystems iEMS Reader MF™ microtiter plate reader. FVIII-like activity of the samples was calculated by comparing the absorbency of the samples against the absorbency of a diluted FVIII reference standard (IMMUNO AG #5T4AR00) using GENESIS™ software.
Several anti-FIX/FIXa antibody producing hybridoma clones were subcloned up to four times and the resulting monoclonal hybridoma cell line used to produce monoclonal antibody containing supernatant. IgG isotype antibodies derived from these supernatants were purified over affinity columns and dialyzed against TBS (see above). IgM antibodies were used as unpurified supernatant fractions. […] Absorbance at 405 nm and 490 nm of the samples was read at various times (5 min to 6 h) against a reagent blank (cell culture medium instead of hybridoma supernatant) in a Labsystems iEMS Reader MF™ microtiter plate reader using GENESIS™ software. […]

FVIII inhibitor plasma = assay: aPTT based one stage clotting assay in FVIII inhibitor plasma; format: biochemical; settings: inhibitor potency 400 BU/ml, 50 ng activated FIXa
Procedure: […] […] […] After a 4 minute incubation, the reaction was started by the addition of 100 μl CaCl2 (25 mM). To ensure equal conditions, the experiments employing FVIII deficient plasma and FVIII inhibitor plasma were done side by side.
To assay for the procoagulant activity of peptide A1/3 in FVIII inhibitor plasma the following experiment was carried out. We performed a standard aPTT based one stage clotting assay, but instead of FVIII deficient plasma we employed FVIII inhibitor plasma.

FIX/FIXa = assay: Western Blot and ELISA reactivity with FIX/FIXa; format: binding
Procedure: Factor IX and the two activated forms of FIX, FIXaα and FIXaβ (FIX/FIXa(α,β)) were diluted in TBS (25 mM Tris HCl, 150 mM NaCl, pH 7.5) to a final concentration of 2 μg/ml. Nunc Maxisorp ELISA plates were coated with 100 μl FIX/FIXa(α,β) solution according to standard procedures (4° C., overnight) and washed several times with TBST (TBS, 0.1% (v/v) Tween 20). 50 μl hybridoma supernatant was diluted 1:1 with 50 μl TBST/2% BSA and added to the coated ELISA plate. After an incubation period of 2 h at room temperature (RT), plates were washed 4 times with TBST and incubated (2 h, RT) with 100 μl/well of a 1:25000 dilution (in TBST/1% BSA) of an anti-mouse IgG (Fc-specific) peroxidase conjugated antibody (Sigma, #A-0168). Wells were washed 5 times with TBST and finally stained with 100 μl freshly prepared staining solution (10 ml 50 mM sodium citrate, pH 5 supplemented with 100 μl OPD (60 mg OPD/ml) and 10 μl 30% H2O2). The reaction was stopped by the addition of […] H2SO4 and the optical density recorded at 492 nm and 620 nm in a Labsystems iEMS Reader MF™ microtiter plate reader employing GENESIS™ software. […]

Molecule	clotting time (FVIII deficient plasma; 0.23 μg AB)	clotting time (FVIII deficient plasma; 0.34 μg AB)	clotting time (FVIII deficient plasma; 0.45 μg AB)	clotting time (FVIII deficient plasma; 0.9 μg AB)	clotting time (FVIII deficient plasma; 1.35 μg AB)	clotting time (FVIII deficient plasma; 1.8 μg AB)	clotting time (FVIII deficient plasma; 2.25 μg AB)	clotting time (FVIII deficient plasma; 4.5 μg AB)	clotting time (FVIII deficient plasma; 9 μg AB)	procoagulant activity (FVIII deficient plasma; one-stage clotting assay in the presence of FIXa)	reduction of the clotting time (FVIII deficient plasma; various amounts of antibody, 50 ng activated FIX)	time course of FVIII-like activity (chromogenic substrate cleavage, OD 405 nm) (factor IXa)	reduction of the clotting time (FVIII inhibitor plasma)	reactivity with FIX/FIXa (FIX/FIXa)
B1	99.3 s	97.1 s	98.1 s	94.4 s	91.4 s	93.7 s	93.1 s	95.6 s	101.6 s	procoagulant	clear dose-dependent reduction of the clotting time; also recorded: reduction in the coagulation time	give rise to chromogenic substrate cleavage; also recorded: gave rise to chromogenic substrate cleavage	clear dose-dependent reduction of the clotting time	–
B2	–	–	–	–	–	–	–	–	–	–	–	–	–	does not react with FIX/FIXa
